Laboratory results taken from US8987414 (AILERON THERAPEUTICS, dated 2015).
Bridge positions count the residues as written; N and C are the ends. Square brackets hold non-standard residues; d marks the D form. $4rn6 = Alpha-Me R-azide 1,4 triazole (6 carbon), forms a triazole cross-link with a second residue in the same molecule; $4a5 = Alpha-Me alkyne 1,4 triazole (5 carbon), forms a triazole cross-link with a second residue in the same molecule; $5rn6 = Alpha-Me R-azide 1,5 triazole (6 carbon); $5a5 = Alpha-Me alkyne 1,5 triazole (5 carbon); Cba = N[C@@H](CC1CCC1)C(=O)O

T1: MDMX (In-house, 40 kD) (UniProt O15151 1-134, limits assumed)
T1 construct: Construct used in the FP assays is described only as in-house, 40 kD; also called MDM4
T1 sequence (looked up): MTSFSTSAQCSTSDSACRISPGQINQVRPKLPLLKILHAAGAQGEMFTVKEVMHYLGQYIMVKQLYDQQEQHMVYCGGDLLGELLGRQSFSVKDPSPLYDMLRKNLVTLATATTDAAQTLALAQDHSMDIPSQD

B1: SP-450 (peptide)
peptide: Ac-LTF[$4rn6]AYWAQL[$4a5]AAAAA[dA]-NH2
modifications: triazole 4-11
notes: Triazole-crosslinked macrocycle of Formula I; also called Ac-LTF$4rn6AYWAQL$4a5AAAAAa-NH2
B2: SP-917 (peptide)
peptide: LTFCAYWAQLCAAAAAA
modifications: N-terminal acetyl (Ac); position 4 = %cs7 (alpha-methyl-D-cysteine) connected by an i to i+7 seven-methylene bis-thioether crosslinker to position 11 = %c7 (alpha-methyl-L-cysteine); position 17 = D-alanine (a); C-terminal amide (NH2)
notes: Thioether-crosslinked macrocycle of Formula II; also called Ac-LTF%cs7AYWAQL%c7AAAAAa-NH2
B3: SP-459 (peptide)
peptide: Ac-LTA[$5rn6]EYWAQ[Cba][$5a5]SAA-NH2
modifications: triazole 4-11
notes: also called Ac-LTA$5rn6EYWAQCba$5a5SAA-NH2
B4: SP-460 (peptide)
peptide: Ac-LTA[$4rn6]EYWAQ[Cba][$4a5]SAA-NH2
modifications: triazole 4-11
notes: also called Ac-LTA$4rn6EYWAQCba$4a5SAA-NH2
B5: SP-449 (peptide)
peptide: LTFXAYWAQLXAAXA
modifications: N-terminal acetyl (Ac); position 4 = $4rn6 (alpha-Me R-azide 1,4 triazole, 6 carbon) crosslinked to position 11 = $4a5 (alpha-Me alkyne 1,4 triazole, 5 carbon); position 14 = Nle (norleucine); C-terminal amide (NH2)
notes: Triazole-crosslinked macrocycle of Formula I; also called Ac-LTF$4rn6AYWAQL$4a5AANleA-NH2
B6: SP-916 (peptide)
peptide: LTFCAYWAQLCAAXA
modifications: N-terminal acetyl (Ac); position 4 = %cs7 (alpha-methyl-D-cysteine) connected by an i to i+7 seven-methylene bis-thioether crosslinker to position 11 = %c7 (alpha-methyl-L-cysteine); position 14 = Nle (norleucine); C-terminal amide (NH2)
notes: Thioether-crosslinked macrocycle of Formula II; also called Ac-LTF%cs7AYWAQL%c7AANleA-NH2

What was measured:
MDM2 (In-house, 41 kD) [1] = target: T2, MDM2 (In-house, 41 kD) (UniProt Q00987 1-138, limits assumed); assay: competitive fluorescence polarization vs FAM-labeled linear peptide; grade of Ki (MDM2); scale in paragraph 664: ++ = >100 and <=1000 nM
T2 construct: Construct used in the FP assays is described only as in-house, 41 kD; also called HDM2
T2 sequence (Q00987 1-138 limits assumed): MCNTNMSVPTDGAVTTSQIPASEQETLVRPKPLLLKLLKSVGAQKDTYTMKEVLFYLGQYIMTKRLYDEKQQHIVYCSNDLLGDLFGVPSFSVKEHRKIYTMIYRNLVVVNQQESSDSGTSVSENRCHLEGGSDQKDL

MDMX (In-house, 40 kD) [2] = target: T1, MDMX (In-house, 40 kD); assay: competitive fluorescence polarization vs FAM-labeled linear peptide; grade of IC50 (MDMX); scale in paragraph 664: +++ = >10 and <=100 nM
Description: (§1) The assay is performed according to the following general protocol: 1. Dilute MDMX (In-house, 40 kD) into FP buffer (High salt buffer-200 mM Nacl, 5 mM CHAPS, pH 7.5.) to make 300 nM (2×) working stock solution. 2. Add 20 µl of 300 nM (2×) of protein stock solution into each well of 96-well black HE microplate (Molecular Devices) 3. […] Then, dilute from 100 µM to 10 µM with water (dilution 1:10) and then dilute with FP buffer from 10 µM to 40 nM (dilution 1:250). This is the working solution which will be a 10 nM concentration in well (dilution 1:4). […] 4. Make unlabeled peptide dose plate with FP buffer starting with 5 µM (final) of peptide and making 5 fold serial dilutions for 6 points using following dilution scheme. 5. Dilute 10 mM (in 100% DMSO) with DMSO to 5 mM (dilution 1:2). Then, dilute from 5 mM to 500 µM with H_2O (dilution 1:10) and then dilute with FP buffer from 500 µM to 20 µM (dilution 1:25). Making 5 fold serial dilutions from 20 µM (4×) for 6 points. 6. Transfer 10 µl of serial diluted unlabeled peptides to each well which is filled with 20 µl of 300 nM of protein. 7.

MDM2 (In-house, 41 kD) [3] = target: T2, MDM2 (In-house, 41 kD); assay: competitive fluorescence polarization vs FAM-labeled linear peptide; grade of Ki (MDM2); scale in paragraph 664: ++++ = <=10 nM
MDM2 (In-house, 41 kD) [4] = target: T2, MDM2 (In-house, 41 kD); assay: competitive fluorescence polarization vs FAM-labeled linear peptide; grade of IC50 (MDM2); scale in paragraph 664: +++ = >10 and <=100 nM
MDMX (In-house, 40 kD) [5] = target: T1, MDMX (In-house, 40 kD); assay: competitive fluorescence polarization vs FAM-labeled linear peptide; grade of Ki (MDMX); scale in paragraph 664: +++ = >10 and <=100 nM
Description: as §1

MDMX (In-house, 40 kD) [6] = target: T1, MDMX (In-house, 40 kD); assay: competitive fluorescence polarization, Ki (MDMX)
Description: as §1

MDM2 (In-house, 41 kD) [7] = target: T2, MDM2 (In-house, 41 kD); assay: competitive fluorescence polarization, Ki (MDM2)
MDM2 (In-house, 41 kD) [8] = target: T2, MDM2 (In-house, 41 kD); assay: competitive fluorescence polarization vs FAM-labeled linear peptide; grade of IC50 (MDM2); scale in paragraph 664: ++++ = <=10 nM
MDMX (In-house, 40 kD) [9] = target: T1, MDMX (In-house, 40 kD); assay: competitive fluorescence polarization vs FAM-labeled linear peptide; grade of Ki (MDMX); scale in paragraph 664: ++++ = <=10 nM
Description: as §1

MDMX (In-house, 40 kD) [10] = target: T1, MDMX (In-house, 40 kD); assay: competitive fluorescence polarization vs FAM-labeled linear peptide; grade of IC50 (MDMX); scale in paragraph 664: ++++ = <=10 nM
Description: as §1

| Binder | IC50 (MDMX (In-house, 40 kD) [2]) [nM] | Ki (MDM2 (In-house, 41 kD) [3]) [nM] | IC50 (MDM2 (In-house, 41 kD) [4]) [nM] | Ki (MDMX (In-house, 40 kD) [6]) [nM] | Ki (MDM2 (In-house, 41 kD) [7]) [nM] | Ki (MDMX (In-house, 40 kD) [9]) [nM] | other results |
| --- | --- | --- | --- | --- | --- | --- | --- |
| B1 |  |  |  |  |  |  | Ki (MDM2 (In-house, 41 kD) [1]): 100 to 1000 nM |
| B2 | 10 to 100 | ≤ 10 | 10 to 100 |  |  |  | Ki (MDMX (In-house, 40 kD) [5]): 10 to 100 nM |
| B3 |  |  |  | > 1000 | > 1000 |  |  |
| B4 |  |  |  | > 1000 | > 1000 |  |  |
| B5 |  | ≤ 10 |  |  |  | ≤ 10 | IC50 (MDM2 (In-house, 41 kD) [8]): ≤ 10 nM; IC50 (MDMX (In-house, 40 kD) [10]): ≤ 10 nM |
| B6 | 10 to 100 | ≤ 10 | 10 to 100 |  |  | ≤ 10 |  |
